# From patent publication US20160289298A1 (ACCELERON PHARMA, published 2016)
# T1: BMP6 (UniProt P22004 382-513, limits assumed)
# T1 sequence (looked up): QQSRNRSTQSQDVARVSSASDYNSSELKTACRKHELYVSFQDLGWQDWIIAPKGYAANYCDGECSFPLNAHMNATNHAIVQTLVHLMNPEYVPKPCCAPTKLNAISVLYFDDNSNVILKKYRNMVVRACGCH
# T2: BMP7 (UniProt P18075 293-431)
# T2 construct: also called OP-1
# T2 sequence (looked up): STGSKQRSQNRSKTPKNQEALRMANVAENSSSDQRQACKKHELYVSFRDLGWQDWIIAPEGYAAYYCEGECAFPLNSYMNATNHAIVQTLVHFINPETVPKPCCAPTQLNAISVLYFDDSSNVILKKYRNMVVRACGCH
# T3: BMP15 (UniProt O95972 268-392)
# T3 construct: also called GDF9b
# T3 sequence (looked up): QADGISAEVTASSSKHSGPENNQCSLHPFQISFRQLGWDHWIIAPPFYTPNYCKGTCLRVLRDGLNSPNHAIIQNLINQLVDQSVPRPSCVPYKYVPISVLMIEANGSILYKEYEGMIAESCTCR
# T4: BMP5 (UniProt P22003 317-454, limits assumed)
# T4 sequence (looked up): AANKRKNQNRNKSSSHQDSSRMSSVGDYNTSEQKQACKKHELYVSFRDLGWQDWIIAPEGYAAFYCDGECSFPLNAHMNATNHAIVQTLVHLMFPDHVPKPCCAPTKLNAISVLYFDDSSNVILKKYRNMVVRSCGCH
# T5: activin A (UniProt P08476 311-426)
# T5 sequence (looked up): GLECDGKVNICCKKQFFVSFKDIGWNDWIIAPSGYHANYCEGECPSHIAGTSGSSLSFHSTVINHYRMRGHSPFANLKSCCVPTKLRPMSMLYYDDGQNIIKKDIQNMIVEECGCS
# T6: GDF8 (UniProt O14793 267-375)
# T6 construct: also called myostatin
# T6 sequence (looked up): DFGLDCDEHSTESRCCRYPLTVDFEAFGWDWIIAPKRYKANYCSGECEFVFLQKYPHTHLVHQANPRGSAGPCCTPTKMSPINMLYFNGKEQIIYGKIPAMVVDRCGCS
# T7: BMP4 (UniProt P12644 293-408)
# T7 sequence (looked up): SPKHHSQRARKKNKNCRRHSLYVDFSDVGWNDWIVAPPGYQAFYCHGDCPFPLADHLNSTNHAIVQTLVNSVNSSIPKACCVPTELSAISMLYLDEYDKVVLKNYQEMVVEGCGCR
# B1: BMPRII-Fc homodimeric complex (Fc fusion, UniProt Q13873 27-150, looked up)
# chain: SQNQERLCAFKDPYQQDLGIGESRISHENGTILCSKGSTCYGLWEKSKGDINLVKQGCWSHIGDPQECHYEECVVTTTPPSIQNGTYRFCCCSTDLCNVNFTENFPPPDTTPLSPPHSFNRDET
# notes: also called homodimeric BMPRII-Fc; not shown: linker and Fc portion of the homodimer
# B2: activin B (ligand, UniProt P09529 293-407, looked up)
# chain: GLECDGRTNLCCRQQFFIDFRLIGWNDWIIAPTGYYGNYCEGSCPAYLAGVPGSASSFHTAVVNQYRMRGLNPGTVNSCCIPTKLSTMSMLYFDDEYNIVKRDVPNMIVEECGCA
# B3: BMP2 (ligand, UniProt P12643 283-396, looked up)
# chain: QAKHKQRKRLKSSCKRHPLYVDFSDVGWNDWIVAPPGYHAFYCHGECPFPLADHLNSTNHAIVQTLVNSVNSKIPKACCVPTELSAISMLYLDENEKVVLKNYQDMVVEGCGCR
# B4: ALK3-Fc homodimeric complex (Fc fusion, UniProt P36894 24-152, looked up)
# chain: QNLDSMLHGTGMKSDSDQKKSENGVTLAPEDTLPFLKCYCSGHCPDDAINNTCITNGHCFAIIEEDDQGETTLASGCMKYEGSDFQCKDSPKAQLRRTIECCRTNLCNQYLQPTLPPVVIGPFFDGSIR
# notes: also called homodimeric ALK3-Fc; not shown: linker and Fc portion of the homodimer
# B5: GDF11 (ligand, UniProt O95390 299-407, looked up)
# chain: NLGLDCDEHSSESRCCRYPLTVDFEAFGWDWIIAPKRYKANYCSGQCEYMFMQKYPHTHLVQQANPRGSAGPCCTPTKMSPINMLYFNDKQQIIYGKIPGMVVDRCGCS
# notes: also called BMP11
# Assays:
# BMP6 = biological target: T1, BMP6; assay: SPR (Biacore), receptor-Fc captured by anti-Fc antibody, ligand injected
# Procedure: (§1) Ligands were injected and allowed to flow over the captured receptor protein.
# BMP7 = biological target: T2, BMP7; assay: as above
# Procedure: as §1
# BMP15 = biological target: T3, BMP15; assay: as above
# Procedure: as §1
# [1] = biological target: B1; assay: as above
# Procedure: as §1
# BMP5 = biological target: T4, BMP5; assay: as above
# [2] = biological target: B4; assay: as above
# [3] = biological target: T8, ActRIIA-Fc homodimeric complex (UniProt P27037 21-135); assay: as above
# T8 construct: also called homodimeric ActRIIA-Fc; not shown: linker and Fc portion of the homodimer
# activin A = biological target: T5, activin A; assay: SPR (Biacore), legend of FIG. 6
# Procedure: as §1
# activin B = biological target: B2; assay: SPR (Biacore), legend of FIG. 6
# Procedure: as §1
# GDF8 = biological target: T6, GDF8; assay: SPR (Biacore), legend of FIG. 6
# Procedure: as §1
# GDF11 = biological target: B5; assay: SPR (Biacore), legend of FIG. 6
# Procedure: as §1
# BMP2 = biological target: B3; assay: SPR (Biacore), receptor-Fc captured by anti-Fc antibody, ligand injected
# BMP4 = biological target: T7, BMP4; assay: as above
# T8 sequence (P27037 21-135, one chain of several): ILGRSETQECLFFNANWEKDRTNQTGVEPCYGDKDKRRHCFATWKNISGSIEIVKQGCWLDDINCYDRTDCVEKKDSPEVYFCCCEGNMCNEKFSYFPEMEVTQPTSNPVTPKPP
binder,measurement,setting,value
B1,Kd,BMP6,> 8.9 nM
same,Kd,BMP7,> 38 nM
same,Kd,BMP15,0.28 nM
same,koff,BMP15,0.0028 s⁻¹
same,kon,BMP15,9.9e+06 M⁻¹ s⁻¹
B2,Kd,[1],3.8 nM
same,koff,[1],0.075 s⁻¹
same,kon,[1],2e+07 M⁻¹ s⁻¹
"GDF6 (ligand, UniProt Q6KF10 336-455, looked up, also called BMP13) TAFASRHGKRHGKKSRLRCSKKPLHVNFKELGWDDWIIAPLEYEAYHCEGVCDFPLRSHLEPTNHAIIQTLMNSMDPGSTPPSCCVPTKLTPISILYIDAGNNVVYKQYEDMVVESCGCR",Kd,[1],> 88 nM
B3,Kd,[1],> 2000 nM
B4,binding result,BMP5,binds
"BMP10 (ligand, UniProt O95393 317-424, looked up) NAKGNYCKRTPLYIDFKEIGWDSWIIAPPGYEAYECRGVCNYPLAEHLTPTKHAIIQALVHLKNSQKASKACCVPTKLEPISILYLDKGVVTYKFKYEGMAVSECGCR",binding result,[2],no binding
same,binding result,[3],binds
same,Kd,[1],0.098 nM
same,koff,[1],0.0025 s⁻¹
same,kon,[1],2.6e+07 M⁻¹ s⁻¹
B5,binding result,[2],no binding
same,binding result,[3],binds
"single-arm ActRIIB-Fc:Fc heterodimeric protein complex (Fc fusion, C-terminal lysine optionally removed; also called single-arm ActRIIB-Fc heterodimeric complex) chain 1: GRGEAETRECIYYNANWELERTNQSGLERCEGEQDKRLHCYASWRNSSGTIELVKKGCWLDDFNCYDRQECVATEENPQVYFCCCEGNFCNERFTHLPEAGGPEVTYEPPPTAPTGGGTHTCPPCPAPELLGGPSVFLFPPKPKDTLMISRTPEVTCVVVDVSHEDPEVKFNWYVDGVEVHNAKTKPREEQYNSTYRVVSVLTVLHQDWLNGKEYKCKVSNKALPAPIEKTISKAKGQPREPQVYTLPPSRKEMTKNQVSLTCLVKGFYPSDIAVEWESNGQPENNYKTTPPVLKSDGSFFLYSKLTVDKSRWQQGNVFSCSVMHEALHNHYTQKSLSLSPGK chain 2: SNTKVDKRVTGGGTHTCPPCPAPELLGGPSVFLFPPKPKDTLMISRTPEVTCVVVDVSHEDPEVKFNWYVDGVEVHNAKTKPREEQYNSTYRVVSVLTVLHQDWLNGKEYKCKVSNKALPAPIEKTISKAKGQPREPQVYTLPPSREEMTKNQVSLTCLVKGFYPSDIAVEWESNGQPENNYDTTPPVLDSDGSFFLYSDLTVDKSRWQQGNVFSCSVMHEALHNHYTQKSLSLSPGK",binding result,activin A,binds
same,binding result,activin B,binds
same,binding result,GDF8,binds
same,binding result,GDF11,binds
"single-arm ALK3-Fc:Fc heterodimeric protein complex (Fc fusion, also called single-arm ALK3-Fc heterodimer) chain 1: GAQNLDSMLHGTGMKSDSDQKKSENGVTLAPEDTLPFLKCYCSGHCPDDAINNTCITNGHCFAIIEEDDQGETTLASGCMKYEGSDFQCKDSPKAQLRRTIECCRTNLCNQYLQPTLPPVVIGPFFDGSIRTGGGTHTCPPCPAPELLGGPSVFLFPPKPKDTLMISRTPEVTCVVVDVSHEDPEVKFNWYVDGVEVHNAKTKPREEQYNSTYRVVSVLTVLHQDWLNGKEYKCKVSNKALPAPIEKTISKAKGQPREPQVYTLPPSREEMTKNQVSLTCLVKGFYPSDIAVEWESNGQPENNYDTTPPVLDSDGSFFLYSDLTVDKSRWQQGNVFSCSVMHEALHNHYTQKSLSLSPG chain 2: SNTKVDKRVTGGGTHTCPPCPAPELLGGPSVFLFPPKPKDTLMISRTPEVTCVVVDVSHEDPEVKFNWYVDGVEVHNAKTKPREEQYNSTYRVVSVLTVLHQDWLNGKEYKCKVSNKALPAPIEKTISKAKGQPREPQVYTLPPSRKEMTKNQVSLTCLVKGFYPSDIAVEWESNGQPENNYKTTPPVLKSDGSFFLYSKLTVDKSRWQQGNVFSCSVMHEALHNHYTQKSLSLSPGK",binding result,BMP2,binds
same,binding result,BMP4,binds
same,binding result,BMP5,binds
"BMP9 (ligand, UniProt Q9UK05 320-429, looked up, also called GDF2) SAGAGSHCQKTSLRVNFEDIGWDSWIIAPKEYEAYECKGGCFFPLADDVTPTKHAIVQTLVHLKFPTKVGKACCVPTKLSPISVLYKDDMGVPTLKYHYEGMSVAECGCR",Kd,[1],2.1 nM
same,koff,[1],0.026 s⁻¹
same,kon,[1],1.2e+07 M⁻¹ s⁻¹
